Experiment [1] addresses T1, human ApoC3 (huApoC3), native protein purified from human serum (human, UniProt P02656 21-99). Put plainly: cell-based or functional assay.
Experiment [2] addresses T1, human ApoC3 (huApoC3), native protein …. Put plainly: SPR Biacore, huApoC3 on chip, scFv-Fc as analyte. The protocol:
This example describes characterization of anti-ApoC3 antibodies regarding their affinity to ApoC3 under neutral conditions using an SPR-based assay using a Biacore 3000 instrument (Biacore AB). Native huApoC3 protein was immobilized on a CM5 chip. The immobilization was performed in accordance with the method provided by Biacore using the NHS/EDC kit (Biacore AB): after activation of the chip, a solution of 60 μg/ml of human ApoC3 in 10 mM acetate buffer with pH of 4.5 was prepared and injected until the surface density reached approximately 1000 RU. Capturing of the human ApoC3 on the streptavidin coated chip (SA) was performed at pH 7.4 in accordance with a method provided by Biacore via injection of 20 μl 10 μg/ml biotinylated human ApoC3 thereby reaching the surface density of approximately 500 RU. […] After the dissociation, the flow cell surfaces were regenerated by injecting 10 μl of 10 mM […]/1 M NaCl and 10 μl of 10 mM glycine at pH1.5. The resulting sensorgrams were analyzed using the BIAevaluation 4.1 software using Langmuir 1:1 binding model to derive binding kinetics. Data was zero adjusted and the reference cell sensorgrams were subtracted.
A number of scFv-Fc antibodies were examined in this assay. The association rate (ka), dissociation rate (kd), analyte binding capacity (Rmax), equilibrium association constant (KA) and equilibrium dissociation constant (KD) of these antibodies are shown in Table 5.
(In general: Surface plasmon resonance follows binding to a sensor surface in real time, without labels.)

Residue numbers refer to the chain shown, from its start.

T1 sequence (P02656 21-99): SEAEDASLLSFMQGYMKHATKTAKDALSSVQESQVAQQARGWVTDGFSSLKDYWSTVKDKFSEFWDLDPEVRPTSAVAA

B1: 14C4 scFv-Fc (Fc fusion)
VH: QLQLVESGGGLVQPGGSLRLSCAASGFTFGNYDMSWVRQAPGKGPEWVSVINSDGDGTYYVDSVKGRFTISRDNAKNTLYLQMNSLKPEDRAVYYCAIANLGLWGQGTLVTVSS
VL: ATMLTQSPGSLSVVPGESASISCKATQSLVHSDGKTYLSWLLQKPGQSPQRLIYQVSNRGSGVPDRFTGSGSGTDFTLKISGVKAEDAGVYYCAQAPYWTFGQGTKLEIK
Regarding B1, the “attenuation of the ability of ApoC3 to inhibit VLDL uptake by HepG2 cells” value in experiment [1] is around 60%.

B2: 12C3 scFv-Fc (Fc fusion)
VH: ELQLVESGGGLVQPGGSLRLSCAASGFTFSSYSMFWVRQSPGKGLERVSGINGGGDRSNYADSVRDRFTISRDNAKNTLYLQMNSLKSEDTAVYYCVIQGYAYWGQGTQVTVSS
VL: DVVLTQTPASLSVVPGESASISCKASQSLVHSDGKTYLYWLLQKPGQSPQRLIYQTSNRGSGVPDRFTGSGSGTDFTLDISGVKAEDAGVYYCAQATYSPHTFGSGTRLEIK
For the molecule B2, in experiment [1], the “attenuation of the ability of ApoC3 to inhibit VLDL uptake by HepG2 cells” value was around 85%.

B3: 14G4 scFv-Fc (Fc fusion)
VH: QVQLVESGGGLVQPGGSLRLSCAASGFAFSRYTMNWVRQAPGKGLEWLSAISPDGGKTIDADSVKGAFASSRDNTMNTLYLDMNSLKPEDAAVYYCVAGHNMDYWGKGILVTVSS
VL: B2 VL with A9G, T56V, R59Q, D79K, S99T, H101R, S105Q, R108T, I111V
In the case of B3, the “attenuation of the ability of ApoC3 to inhibit VLDL uptake by HepG2 cells” value in experiment [1] was around 100%.

B4: 12D4 scFv-Fc (Fc fusion)
VH: QLQLVESGGGLVQPGGSLRVSCAASGFTFSSSNMRWVRQVSGKGLEWVSTISPDGGKTLYADSVKGRFTISRDNAKNTLHLQMVSLKPEDTALYYCVKAGYDYWGQGTQVTVSS
VL: B2 VL with D1A, V2T, V3M, T7S, A9G, T56V, R59Q, D79K, S99A, T102S
As to B4, the “attenuation of the ability of ApoC3 to inhibit VLDL uptake by HepG2 cells” value in experiment [1] is around 60%.

B5: 12E12 scFv-Fc (Fc fusion)
VH: EVQLVESGGDLVQPGGSLRVSCAASGLTFSNIYMSWVRQAPGKGLEWVSAINTAGTVTYYADSVKGRFTISRDNAKNTLYLQMNSLKPEDTAHYYCTTGEVDWGKGTLVTVSS
VL: QTVVTQEPSLSVSPGGTVTLTCGLSSGSVTSVTYPGWYQQKPGQAPRTLIYNTNSRFSGVPNRFSGSISGNKAALTITGALPEDEADYYCSVYIGGGIYPAVFGGGTHLTVL
Take B5: in experiment [1], the “attenuation of the ability of ApoC3 to inhibit VLDL uptake by HepG2 cells” value was around 40%.

B6: 12A3 scFv-Fc (Fc fusion)
VH: ELQLVESGGGLVQSGGSLRLSCAASGFTFSNYAMRWVRQAPGGRLEWVSSINIAGSSVVYADSVKGRFTISRDNAKNTLYLQMNSLKSEDTAVYYCAMQGFVYWGQGTQVTVSS
VL: DVVLTQTPGSLSVVPGESANISCKAGRSLVHSDGRTYLYWLLQKPGQSPQRLIYQVSNRSSGVPDRFTGSGSGTDFTLKITGVKAEDAGVYYCAQGTYYPVTFGQGTKVELK
As for B6, the “attenuation of the ability of ApoC3 to inhibit VLDL uptake by HepG2 cells” value in experiment [1] is around 100%.

B7: 8B7 scFv-Fc (Fc fusion)
VH: EVQVQESGPGLVKPSQTLSLTCTVSGASITNRRYAWTWIRQPPGKGLEWMGVIVYDGNTHVSPSLRSRTSISRDTSKNQFSLQLSSLTPEDTAVYYCARVLLLRDPLSLDYWGQGTQVTVSS
VL: SSALTQPPSMSGTLGKTLTISCAGTSSDIGAYNFVSWYQQLPGTAPKLLIYDIDKRASGIPDRFSGSKSGNTASLSISGLQSEDEADYYCAAYGSRDNVVFGGGTHLTVL
notes: scFv-Fc format
In experiment [2], B7 had a Ka of 4.16e+09 M⁻¹, a dissociation constant Kd of 0.24 nM, a dissociation rate constant (koff) of 0.000675 s⁻¹ and a kon of 2.81e+06 M⁻¹ s⁻¹.

B8: 5A7 scFv-Fc (Fc fusion)
VH: B7 VH
VL: B7 VL
notes: scFv-Fc format
On to B8, for which, in experiment [2], the Ka is 2.08e+09 M⁻¹; the affinity, expressed as Kd, was 0.48 nM; the koff stood at 0.000647 s⁻¹; the kon came to 1.35e+06 M⁻¹ s⁻¹.

B9: 7A9 scFv-Fc (Fc fusion)
VH: B7 VH
VL: B7 VL
notes: scFv-Fc format
Take B9: in experiment [2], the Ka was determined as 3.87e+09 M⁻¹, binding was characterised by a dissociation constant (Kd) of 0.258 nM, the koff came out at 0.00067 s⁻¹ and the kon is 2.59e+06 M⁻¹ s⁻¹.

B10: 13G7 IgG1 (antibody, V domains shown)
VH: QVQLQESGPGLVKPSQTLSLTCTVSGGSISTTAPAWGWIRQSPGKGLDWMAVIAFDGSAYYSPSLKSRTLISRDTSKNQFSLQLSSVTPEDTAVYYCARLGGRNYPPYVELWGQGTLVTVSS
VL: QPVLTQPPALSVTLGQTAKITCQGGSLRVSYAHWYQQKPGQAPVLVSYDDDSRPSGIPERFSGSGSGATATLTISGAQAEDEGDYYCQSADSSGDNWVFGGGTHLTVL
Regarding B10, the “EC50, attenuation of ApoC3-mediated LPL inhibition (NEFA production)” value in experiment [1] was around 3000 nM.

B11: 13G7 scFv-Fc (Fc fusion)
VH: B10 VH
VL: B10 VL
With B11, the “attenuation of the ability of ApoC3 to inhibit VLDL uptake by HepG2 cells” value in experiment [1] was around 100%.

B12: 12D1 scFv-Fc (Fc fusion)
VH: QLQLVESGGGLVQPGGSLRLSCAASGFTFGTYSMRWVRQVPRKALEWVSSISTDGGGTAYRDSVKGRFTISRDNAKNTLYLQMNNLKPEDTAIYYCVIAGYSDWGQGTQVTVSS
VL: SALDVVLTQTPGSLSVVPGESASISCKTSQSLTHSDGKTYLYWLLQKPGQSPQRLIYQVSNRGSGVPDRFTGSGSGTDFTLKISGVKAEDAGMYYCAQATYYPHTFGSGSRLEIER
Turning to B12, the “attenuation of the ability of ApoC3 to inhibit VLDL uptake by HepG2 cells” value in experiment [1] was around 60%.

B13: 5E5 IgG1 (antibody, V domains shown)
VH: B12 VH
VL: ATMLTQSPGSLSVVPGESASISCKTSQGLVHSDGKTYFYWFLQKPGQSPQQLIYQVSNRASGVPDRFTGSGSGTDFTLKISGVKAEDAGVYYCAQGTYYPHTFGSGTRLEIK
With B13, the “EC50, attenuation of ApoC3-mediated LPL inhibition (NEFA production)” value in experiment [1] is above 5000 nM.

B14: 11H1 scFv-Fc (Fc fusion)
VH: ELQLVESGGGLVQPGGSLRLSCAASGFTFSSYSMRWVRQAPGKGLEWLSSIKSDGSITSYADSVKGRFTMSRDNAKNTLYLQMNSLKSEDTAMYYCTNQGYINWGQGTQVTVSS
VL: ATMLTQSPGSLTIVPGESASISCRASQSLIHSAGKTYFYWLLQKPGQRPQLLIYQVSNRESGVPDRFTGSGSGTDFTLKISGVKAEDAGVYYCAQGTYNPKTFGQGTKLEIK
notes: scFv-Fc format
Regarding B14, in experiment [2], the Ka worked out at 5.89e+08 M⁻¹, the equilibrium dissociation constant (Kd) amounted to 1.7 nM, the off-rate (koff) was 0.000207 s⁻¹ and the association rate constant (kon) is 122000 M⁻¹ s⁻¹.

B15: 13C7 scFv-Fc (Fc fusion)
VH: QLQLVESGGGLVQPGGSLRLSCAASGGTFSRYYMSWVRQAPGKGLEWVSSIYKDGSNTYYADSVKGRFTISRDNAKNTLYLQMNSLKSEDTAVYYCAKALRAEYDYWGQGTQVTVSS
VL: NFMLTQPPSVSGTLGKTVTISCAGTSSDIGGYNYVAWYQQLPGTAPKLLISEVNKRASGIPDRFSGSKSGNTASLSISGLQSEDEADYYCASYRSSNSYVFGGGTKLTVL
With B15, in experiment [1], the “attenuation of the ability of ApoC3 to inhibit VLDL uptake by HepG2 cells” value was around 95%.

B16: 12C12 scFv-Fc (Fc fusion)
VH: EVQVQESGPGLVKPSQTLSLTCTVSGGSITTSYYAWTWIRQPPGKGLEWVGAIVYDGSTFYSPSLKSRTSISRDTSKSQFSLQLSSVTPEDTAVYYCARSYGLGLYDLWGQGTQVTVSS
VL: QAVLTQPPSVSGSPGQKFTISCTGSSSNIGDNYVNWYQHLPGTAPKLLIYSNSNRASGVPDRFSGSKSGSSASLTITGLQAEDEADYYCSSWDDSLSGVVFGGGTHLTVL
Consider B16, for which, in experiment [1], the “attenuation of the ability of ApoC3 to inhibit VLDL uptake by HepG2 cells” value was around 100%.

B17: 14C7 scFv-Fc (Fc fusion)
VH: QVQVQESGPGLVKPSQTLSLTCTVSGGSITTNSYYWSWIRQPPGKGLEWMGAIDYSGDTYYSPSLKSRTSISRDTSKNQFTLQLTSVTPEDTAVYYCVSRIPTGEYWGQGTQVTVSS
VL: QTVVTQEPSLSVSPGGTVTLTCGLNSGSVTSSNYPDWYQQTPGQAPRLLIYNTNSRHSGVPSRFSGSISGNKAALTITGAQPEDEADYYCALYMGSDSVVFGGGTHLTVL
Consider B17, for which the “attenuation of the ability of ApoC3 to inhibit VLDL uptake by HepG2 cells” value in experiment [1] was around 100%.

B18: 8B4 scFv-Fc (Fc fusion)
VH: ELQLVESGGGLVQPGGSLRLSCAASGFTFSNAYLYWVRQVPGKGLEWVSGINPAGDGRAYATSVKGRFTISRDNAKNTLYLQMNTLESDDTAVYYCATASRVVAYDSWGQGTQVTVSS
VL: EIVLTQSPSSVTASVGEKVTINCKSSQSVESGSDQKSYLNWYQQRPGQSPRLLIYYASTQESGIPDRFSGSGSTTDFTLTISSVQPEDAAVYYCQQAYSAPFTFGQGTKVELK
Regarding B18, in experiment [1], the “attenuation of the ability of ApoC3 to inhibit VLDL uptake by HepG2 cells” value is around 60%.

For orientation: Kd means the free concentration of one partner at which half of the binding sites on the other are occupied at equilibrium, for simple one-to-one binding. Read a high Kd as lower affinity. What is called koff is the first-order rate constant of dissociation. A lower koff goes with slow dissociation. A word on the kon: it is the rate constant with which the complex forms.

Values taken from patent US20190241648A1 (STATEN BIOTECHNOLOGY B V, published 2019).
